Measured values taken from the supplement of paper PMC10126150.
± gives the standard deviation of the averaged measurements.

These sequences were tested on ATP (assay: switch fluorescence ratio, 500 uM ATP over buffer (Cy3 cluster intensity, sum of 5 cycles each) (fold (ratio)); higher = stronger signal-on switching upon ATP binding; sequences stand for … in TCGTCGGCAGCGTCAGATGTGTATAAGAGACAGTTTTTTTTTTTTTTTTTTTTTTTTT…TC). Conditions: aptamer strand: ATP DNA aptamer (quencher-CACCTGGGGGAGTATTGCGGAGGAAGG + anchor), 100 nM annealed; ATP concentration: 500 uM.
Method in brief: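 Exposure to 500 uM ATP lasted 15 min at 22 °C before imaging, and a selection-buffer image was taken beforehand, for Cy3-labelled switching-strand clusters on a modified Illumina MiSeq flow-cell annealed to 100 nM quencher-labelled ATP aptamer. Five buffer/ATP cycles were run with NaOH stripping and re-annealing between them. The fluorescence ratio per cluster is summed target-cycle over summed buffer-cycle Cy3 intensity, averaged per switch-domain sequence. Clusters outside 100-1000 RFU were excluded.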

Sequence | switch fluorescence ratio
CGGTCGATCC | 1 ± 0.023
CGGTCTAGGG | 0.995 ± 0.019
CGGTCTGGGG | 0.981 ± 0.027
CGGTCTTACT | 1.02 ± 0.02
CGGTGAATAC | 2.67 ± 0.064
CGGTGACGTT | 1.01 ± 0.028
CGGTGAGGAC | 0.98264 ± 0.00074
CGGTGATTGA | 1.004 ± 0.0023
CGGTGCGACG | 0.958 ± 0.041
CGGTGCTATG | 1 ± 0.015
CGGTGGCTGG | 0.972 ± 0.036
CGGTGGCTTC | 1.003 ± 0.0026
CGGTGGGTGC | 0.997 ± 0.038
CGGTGGTGAT | 1.009 ± 0.0059
CGGTGGTTGG | 1 ± 0.029
CGGTGTAGAG | 0.996 ± 0.0093
CGGTGTCTCA | 1.0117 ± 0.00057
CGGTGTGGGG | 1.01 ± 0.032
CGGTTAGACG | 0.977 ± 0.008
CGGTTAGGAT | 0.994 ± 0.0078
CGGTTATGTA | 0.989 ± 0.034
CGGTTATTAG | 0.9897 ± 0.0066

Sequence | switch fluorescence ratio
CGGTTCGGGT | 0.993 ± 0.013
CGGTTGATCG | 0.918 ± 0.036
CGGTTGCTTA | 0.987 ± 0.012
CGGTTGGGAG | 1.019 ± 0.0064
CGGTTGGTAT | 0.969 ± 0.051
CGGTTGTAAA | 1.02 ± 0.013
CGGTTGTAAT | 1.03 ± 0.041
CGGTTGTTTG | 0.974 ± 0.015
CGGTTTAGGG | 0.986 ± 0.026
CGGTTTATAT | 0.99 ± 0.013
CGGTTTCAAG | 0.972 ± 0.042
CGGTTTCCTC | 1.11 ± 0.074
CGGTTTGGCT | 1.08 ± 0.12
CGGTTTTAAT | 0.99589 ± 0.00077
CGGTTTTAGG | 1.0066 ± 0.00065
CGGTTTTTAC | 1.08 ± 0.041
CGGTTTTTTA | 0.964 ± 0.025
CGTAAACTTG | 1.02 ± 0.023
CGTAAATATA | 1.03 ± 0.015
CGTAAGAGCT | 1 ± 0.016
CGTAATCATC | 1.13 ± 0.023
CGTAATTTCA | 1.02 ± 0.013

Sequence | switch fluorescence ratio
CGTACACGTT | 1.02 ± 0.051
CGTACATTTA | 1.03 ± 0.051
CGTACCAACC | 1.2 ± 0.029
CGTACCTGCG | 1.06 ± 0.042
CGTACGGACC | 1.26 ± 0.046
CGTACGGGTT | 0.9959 ± 0.0039
CGTACTAAAA | 1.06 ± 0.036
CGTAGAATGC | 1.44 ± 0.082
CGTAGAGCGG | 1 ± 0.074
CGTAGGATTG | 1.02 ± 0.03
CGTAGGGCAG | 0.991 ± 0.049
CGTAGGGGGG | 0.986 ± 0.03
CGTAGGGGTG | 0.969 ± 0.014
CGTAGGGTTG | 0.974 ± 0.057
CGTAGTAGTG | 0.993 ± 0.027
CGTAGTTCGA | 1.02 ± 0.018
CGTATAACTC | 1.11 ± 0.014
CGTATGCCGA | 0.961 ± 0.016
CGTATGGATA | 0.998 ± 0.028
CGTATGTTGG | 1.04 ± 0.012
CGTATTCATA | 0.977 ± 0.037
CGTATTTAGA | 0.99 ± 0.064

Sequence | switch fluorescence ratio
CGTATTTCTG | 0.938 ± 0.072
CGTATTTTTA | 1 ± 0.089
CGTCAAGGTG | 1.42 ± 0.24
CGTCAGCACT | 1.79 ± 0.04
CGTCATTAAA | 0.984 ± 0.023
CGTCATTCGC | 1.05 ± 0.16
CGTCATTTAT | 1 ± 0.06
CGTCCATATG | 1.016 ± 0.0089
CGTCCTGGCT | 1.02 ± 0.07
CGTCCTGGGT | 0.995 ± 0.011
CGTCGATAAT | 1.03 ± 0.035
CGTCGGCGCC | 1.09 ± 0.12
CGTCGGTTAG | 1.01 ± 0.015
CGTCGTAGTG | 0.989 ± 0.016
CGTCTTCCTG | 1 ± 0.056
CGTCTTGCCC | 0.9853 ± 0.0052
CGTGAAAGCA | 1.02 ± 0.067
CGTGAAAGTG | 0.991 ± 0.019
CGTGAAATCG | 1.02 ± 0.019
